Laboratory results taken from the nanobody polyreactivity screen of Harvey et al. (2022).

Assay: yeast display, Sf9 membrane polyspecificity reagent, FACS + sequencing; frameworks hold sequencing errors
How it was run: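 Galactose induction of a Saccharomyces cerevisiae BJ5465 synthetic nanobody display library ran 36–48 hours. The cells were then stained for 1 hour at 4 °C with 10% biotinylated, detergent-solubilized Sf9 membrane reagent, pulled down on streptavidin microbeads and FACS-sorted into low and high (top ~1%) gates on expression and reagent-binding fluorescence. Labels for polyreactivity follow the gate of origin.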

| Sequence | polyreactivity (PSR sort gate) |
| --- | --- |
| QVQLVESGGGLVQAGGSLRLSCAASGFTFWRYAMGWYRQAPGKERELVAVITRRGGSTYYADSVKGRFTISRDNAKNTVYLQMNSLKPEDTAVYYCAAGPVSQQHSPGPHDYWGQGTQVTVSS | high polyreactivity |
| QVQLVESGGGLVQAGRSLRLSCAASGFIYPYNALGWYRQAPGKERELVAGITWRGASTYYADSVKGRFTISRDNAKNSVYLQMNRLKPEDTAVDYCAAAYRRVTTKTFKLDYWGQGTQVTVSS | high polyreactivity |
| QVQLVESGGGLVQAGGSLRLSCAASGRTLQHYAMGWYRQAPGKERELVAGITKNGGSTYYADSVKGRFTISRDNAKNTVYLQMNSLKPEDTAVYYCAKRWGGYSIPLDYDYWGQGTQVTVSS | low polyreactivity |
| QVQLVESGGGLVQAGGSLRLSCAASGFIFYSNAMGWYRQAPGKERELVAAISRRGGSTYYADSVKGRFTISRDNAKNTVYLQMNSLKPEDTAVYYCAATFKSGMDYWGQGTQVTVSS | high polyreactivity |
| QVQLVESGGGLVQAGGSLRLSCAASGIIFYVYAMGWYRQAPGKERELVAAISSGGRTNYADSVKGRFTISRDNAKNTVYLQMNSLKPEDTAVYYCAAKSVRRRLGYWGQGTQVTVSS | high polyreactivity |
| QVQLVESGGGLVQAGGSLRFSCAAYGSISRYYAMGWYRLAPGKERELVAAISSNGGSTYYADSVKGRFTISRDNAKNTVYLQMNSLKPEDTAVDDCAAESDYFRYDYWGQGTQVTVSS | high polyreactivity |
| LVQLVESGGGLVQAGGSLRLSGAASGSPFRQNAMGWYRQAPGKERELVAAITWRGDNTYYADSVKGRFTISRDNAKKPVYFQRNSLKPDDTAVDYCAARWSYRLYWGYGYWGQGTEVTVSS | low polyreactivity |
| QVQLVESGGGLVQAGGSLRLSCAASGGIFVANAMGWYRQAPGKERELVAAISRSGGSTYYADSVKGRFTISRDNAKNTVYLQMKSLKPEDTAVYYCAAKSRRQFTVGLTSDYRGQGTQVTVSS | high polyreactivity |
| QVQHVESGRGLVQAGGSLRLSCASSGFTFRRNAMGWYRQAPGKVRELVAVITSSARTNYADSVKGRFTISRDNAKNTVYLQMKSLKPEDTAVYYCNAYGYRQSSSDKYGYWGQCTQVTVSS | high polyreactivity |
| QVQLVESGGGLVQAGGSLRLSCSASGSTFRWNAMGWYRQAPGKERELVASITSGGSTNYADSVKGRFTMSRDNAKNTVYLQLNSLKPEDTAVSYCNADVRRYSNYVWLYDYWGQGTQVTVSS | low polyreactivity |
| QVQLVESGGGLVQAGGSLRLSFAAYGSIFWGYAMGWYRQAPGKERELVAAISSSGGNTYYADSVKGRFTISRDNAKNTVYLQMNSLKPEDTAVYYCAATPEFYGGKITDVYSQYGYWGQGTQVTVSS | low polyreactivity |
| QVQLVESGGGLVQAAGSLRLSCAASGSTFYRNAMGWYRQAPGKERELVASINNGGSTYYADSVKGRFTISRDNAKNTVYLQMNSLKPEDTAVYYCAATESWDYDYWGQGTQVTVSS | low polyreactivity |
| QVQLVESGGGLVQAGGSLRLSCAASGRIFGYNAMGWYRQATGNERELVAAITNGGSTNYADSVKGRFTISRDNAKNTVYLQMNSLKPEDTAVYYCAVKWYPPGHDYWGQGTQVTVSS | low polyreactivity |
| QVQLVESGGGLVQAGGSLRLSCAASGSIFKQNTMGWYRQAPGKEREFVAAISSGGSTYYADSVKGRFTISRDNAKNTVYLQMNSLKPEDTAVYYCAKYYDWDYYLPLEGDYWGQGTQVTVSS | low polyreactivity |
| QVQLVESGGGLVQAGGSLRLSCAASGSIFKGYAMGWYRQAPGKEREFVAAITSSDSNTNYADSVKGRFTFSRDNAKNTVYLQLHTLKPEDTAVYYCNARIYNRLYVPHYGFNYWGQGTQVTVSS | low polyreactivity |
| QDQLVESGGGLVQAGGSLRLSCAASGSTFHLNALGWYRQSPGKERELVAAISRDGSSTSYADSEKGRFTISRDNAKNTVYLQMNSLKPEDTAVFYCAADDTLDRVPSTFIDGSPGYGYWGLGTQVTVSS | low polyreactivity |

| Sequence | polyreactivity (PSR sort gate) |
| --- | --- |
| QVQLVESGGGIVQAGGSLRLSCAASGLTYGKYAMGWNRPAPGKERELVAANSRRGGSTYYADSVKGRFTISRDKAKNNDYLQMNRLKPEDSAVYYFNTDTKHTGLDYWGQGTQVSVSS | high polyreactivity |
| QVHLVESGGGLVQAGGSLRLSCAASGRTLYCYAMGWYRQAPGKERELVASIRSGGSTNYADSVKGRFTISRDNAKNTVYLQMNSLKPEVTAVYYCNTGSRLDRVDSWGQGTQVTVSS | low polyreactivity |
| QVQLVESGGGLVQAGGSLRLSSAASGFTFRRYAMGWYRQAPGKERELVAAISIRGGRTYYADSVNGRFTISRDNAKNTVYLQMNSLKPEDTAVNYCAADGVYALDVESDYWGQGTQVTVSS | high polyreactivity |
| QFHLVESVGGLFQAGGSLRLSSAASGRNFSIYAMGWYRQAPGKERELVAAISWSGGRTYYADSVKGRFTISRDTAKNTVYLQMNSLKPEDTAVYYCNAENGWADYYRSDYWGQGTQVTVSS | high polyreactivity |
| QVQLVESGGGLVQAGGSLRLSCAASGSTFSGNAMGWYRQAPGKERELVAAITRSGSRTYYADSVKGRFTISRDNAKNTVYLQMNSLKPEDTAVYYCAKVGRTGDDYYYWGQGTQVTVAS | high polyreactivity |
| QVQLVESAGGLVQAGGSLSLSCAASGRTFVIYAMGSDRQAPGKERELVAGIDSGTSTYADSVKGRFTISRDNAKNTVYLQMNSLKPEDTAVYYCAADFAPDGAGWYIPGDYDSWGQGTQVTVSS | low polyreactivity |
| QVQLQESGGGLVQAGGCLSCTASGTIFGQGDMGWYRPAPGKERELVATINDGASTYYADSVKGRFTISRDKAKNTVYLQKNSLNQDDTAVYYCAVFTDITTYFGYWGQGTQVTVSS | low polyreactivity |
| QVQLVESGGGLVQAGGSLRVSCAASGSTFYYYAMGGYSQAPGKERELVAAISSRGGSTYYADSVKGRFRISRDNAKNTVYLQMNSLKPEDTAVYYCAASSQRISPDHDYWGQGTQVTVSS | high polyreactivity |
| QVQLVESGGGLVQAGGSLRLSCAASGSIFRYNAMGWYRQAPGKERELVAAISASGGRTHDADSVKGRFTISRDNAKNTVYLQMNSLKPEDTAVYYCAAATYRGTSLYGYWGQGTQVTVSS | high polyreactivity |
| QVQLVESGGGLVHAGGSLRLSCAASGFIFTKNAMGWYRQAPGKDRELVAAITSSGGNTYYADSVKGRFTISRDNAKNTVYLQMNSLKPEDTAVYYCAASRFLRMYWGQGTQVTVSS | high polyreactivity |
| QVQLVESGGGLVQAGGSLRLSCAASGSTFPDNAMGWYRQAPGKERELVAAISFSSGSTYYADSVKGRFTISRDNAKNTVYLQMNSLKPEDTAVYYCAADSYPAYLGFVGFDYWGQGTQVTVSS | low polyreactivity |
| QVHLVESGGGLVQAGGSLRLSCAASGNTFGRYAMGWYRQAPGKEREFVAAIRWRGATTYYADSVKGRFTISRDNAKNTVDLQMNSLKPEDTAVYYCAAYYWGQGTGFDYWGQGTQVTVSS | high polyreactivity |
| QVQLVESGGGLVQAGGSLRLSCAASGSIVWYNAMGWYRPAPGKERELVAAITWSGGSTYYADSVKGRFTISRDNAKNTVYLQMNSLKPEDTAVYYCAADVKRDRVWGGDYWGQGTQVTVSS | low polyreactivity |
| QVQLVESGGGLVQAGGSLRLSCAASGRIFTYNAMGWYRQAPGKERELVAAISTRGGTTRYADSVKGRFTISRDNAKNTVYLQMNSLKPEDTAVYYCNAVSRGSRWDGLVRLDYWGQGTQVTVSS | high polyreactivity |
| QVQLVESGGGLVQAGGSLRLSCAASGRIFYPYAMGWYRQAPGKERELVAAITSGGSTYYADSVKGRFTISRDNAKNTVYFQMNSLKPEDTAVYYCAADVVDLYLLDYWGQGTQVTVSS | low polyreactivity |
| QVQLVESGGGLVQEGGSLRLSCASSGGIFDTNAKGWYRQARGKDREFVAAITGSGGSTYYADSVKGRFTISRDNAKNTVYLQMNSLIPEDTAVYYCAAPLSYYWVYIVRDGYDYWGQGTQVTVSS | low polyreactivity |
